Results taken from patent US20180194862A1 (AbbVie / Abbott, published 2018).
Positions count from the first letter of the chain named.

B1: AD164.76.3 (antibody, V domains shown)
VH: DVQLQESGPGLVKPSQSLSLTCSVTGYSITSNYYWNWIRQFPGNKLEWMGYIRYDGSNNYNPSLKNRISITRDTSKNQFFLRLNSVTTEDTATYYCTRLDYWGQGTTLTVSS
VL: DAVMTQTPLSLPVSLGDQASISCRSSQSLENSNGNTFLNWFLQKPGQSPQLLIYRISNRFSGVPDRFSGSGSGTDFTLKISRVEAEDLGVYFCLQVTHVPFTFGSGTKLEIK
notes: mouse hybridoma antibody; also called muAb10; AD164.76.2
B2: AD165.1.2 (antibody, V domains shown)
VH: DVQLQESGPGLVEPSQSLFLTCSVTGYSITTNYNWNWIRQFPGNKLEWMGYIRHDGTNNYNPSLKNRISIIRDTPKNQFFLKLNSVTTEDTAIYFCTRLDYWGQGTSVTVSS
VL: B1 VL with N33Y, K44R, I56V, S61C, V90I, F101Y, S105G
notes: mouse hybridoma antibody; also called muAb5
B3: AD164.14.6 (antibody, V domains shown)
VH: B1 VH with R82K, T97A
VL: B1 VL with S32T, I56V
notes: mouse hybridoma antibody; also called muAb9
B4: AD175.14.11 (antibody, V domains shown)
VH: EVQLQQSGPELVKPGASVKISCKASGYTFTDYYMNWVKQSHGKSLEWIGDINPNNGGTSYNQKFKGKATLTVDKSSSTAYMELRSLTSEDSAVYYCARRGGLGRGTYALDYWGQGTSVTVSS
VL: DIQMTQTTSSLSASLGDRVTISCRASQDISNYLNWYQQKPDGTVKPLIYYTSRLHLGVPSRFSGSGSGTDYSLTISNLEQEDIATYFCQQGNTLPLTFGAGTKLELK
notes: mouse hybridoma antibody; also called muAb3
B5: AD163.10.7 (antibody, V domains shown)
VH: LVQPGGSLSLSCAASGFTFSDYYMSWVRQPPGKALEWLGFIRNKANGYTTEFSASVKGRFTISRDNSQSILYLQMNALRAEDSATYYCARYGGLRQGWYFDVWGTGTTVTVSS
VL: B4 VL with S30R, P46L, L56S, N92K, L96W, A100G, T102S, L106M
notes: mouse hybridoma antibody; also called muAb4
B6: AD163.162.1 (antibody, V domains shown)
VH: QVQLQQPGAELVRPGSSVKLSCKASGYTFTSYWMHWVKQRPIQGLEWIGNIDPSNGETHYNQKFKDKATLTVDKSSSTAYMQLSSLTSEDSAVYYCARERIYYSGSTYDGYFDVWGTGTTVTVSS
VL: QIVLTQSPAIMSASPGEKVTMTCSASSSLSYMHWYQQKSGTSPKRWIYDTSKLASGVPARFSGSGSGTSYSLTISSMEAEDAATYYCQQWSSNPWTFGGGTKLEIK
notes: mouse hybridoma antibody; also called muAb6
B7: AD163.27.12 (antibody, V domains shown)
VH: B6 VH
VL: B6 VL with A79G, A82G
notes: mouse hybridoma antibody; also called muAb7
B8: AD163.7.2 (antibody, V domains shown)
VH: QVQLQQSGPELVKSGASVKISCKASGYTFTDYYINWVKQRPGQGLEWIGWIFPGSGSVYCNEQFKGQATLTVDRSSSTAYMLLSSLTSEDSAVYFCASSLGKFAYWGQGTLVTVSA
VL: DIVMTQSQKFMSTTVGDRVSITCKASQSVVTAVAWYQQKPGQSPKLLIYSASNRYTGVPDRFTGSGSGTDFALTIRTMQSEDLADYFCQQYSSYPYTFGGGTKLEIK
notes: mouse hybridoma antibody; also called muAb8
B9: AD166.4.4 (antibody, V domains shown)
VH: QVQLQQSGAELMKPGASAKLSCKATGYTFTGYWIQWVKQRPGHGLEWIGEILPGGDHTKYNEKFRGKATFTSDTSSNTVYMQLSSLTTEDSAIYYCARVGGDYWGQGTTLTVSS
VL: DVVMTQTPLSLPVSLGDQASISCRSSQSLVNSNENTYLHWYLQKPGQSPKLLIYKVFNRYSGVPDRFSGSGSGTDFTLKISRVEAEDLGVYFCFQSTHVPWTFGGGTKLEIK
notes: mouse hybridoma antibody; also called muAb2
B10: AD163.9.3 (antibody, V domains shown)
VH: QVQLQQPGAELVKPGASVKMSCKASGYTFTSYWITWVKQRPGQGLEWIGEINPGSGSTNYNEKFKSKATLTVDTSSSTAYMQLSSLTSEDSAVYYCARNRGTGDYWGQGTTLTVSS
VL: B9 VL with N31H, N33Y, E34G, L51F, F57S, Y60I, F67L, A85P, F94S, W101Y
notes: mouse hybridoma antibody; also called muAb1
B11: HuAb17 (antibody, V domains shown)
VH: EVQLVQSGAEVKEPGASVKVSCKASGDTFNRYYVHWARQAPGQGLEWMGIINPSGVSTTYAQKFQGRVTMTRDTPTNTVYMELGSLRPEDTAVYFCAESRGSGYNYFAMDVWGQGTLVTVSS
VL: SYELTQPPSVSVSPGQTADITCSGDKLGDKYASWYQQKPGQSPVLVIYQDNRRPSGIPERFSGSNSGNTATLTISGTQAMDEADYYCQAWDSDTYVFGPGTKVTVL
notes: fully human antibody
B12: HuAM17 (antibody, V domains shown)
VH: EVQLVQSGAEVKKPGASVKVSCKASGDTFNRYYVQWVRQAPGQGLEWMGIINPSGVSTTYAQKFQGRVTMTRDTSTSTVYMELSSLRSEDTAVYYCAESRVPGYNIFAMDVWGQGTLVTVSS
VL: B11 VL with D19S, P99T
notes: fully human antibody
B13: HuAM7 (antibody, V domains shown)
VH: B12 VH with Q35H, S99V, V101G, P102S, I106Y, A108G
VL: B11 VL with D19S, P99T
notes: fully human antibody
B14: HuAM1 (antibody, V domains shown)
VH: B12 VH with N30K, V101G, P102S, I106Y
VL: B11 VL with D19S, P99T
notes: fully human antibody
B15: HuAM18 (antibody, V domains shown)
VH: B12 VH with Q35H, S99T, V101G, P102S, I106Y, A108G
VL: B11 VL with D19S, P99T
notes: fully human antibody
B16: HuAM6 (antibody, V domains shown)
VH: B12 VH with Q35H, I106N
VL: B11 VL with D19S, P99T
notes: fully human antibody
B17: HuAM11 (antibody, V domains shown)
VH: B12 VH with N30K, V34M, Q35H, S99V, V101G, P102S, Y104F, I106Y, A108G
VL: B11 VL with D19S, A89V, P99T
notes: fully human antibody
B18: HuAM13 (antibody, V domains shown)
VH: B12 VH with S99T, V101G, P102S, Y104F, I106Y, A108G
VL: B11 VL with D19S, A89V, P99T
notes: fully human antibody
B19: HuAM12 (antibody, V domains shown)
VH: B12 VH with N30H, Q35H, S99V, V101G, P102S, Y104F, I106Y, A108G
VL: B11 VL with D19S, P99T
notes: fully human antibody
B20: HuAM14 (antibody, V domains shown)
VH: B12 VH with N30K, V34M, Q35H, S99V, V101G, P102S, Y104F, I106Y, A108G
VL: B11 VL with D19S, P99T
notes: fully human antibody

Molecular target: human CD40 on cells (HEK293 stable transfectants, HEK-Blue CD40 cells, human B cells, monocytic cells, … (human, UniProt P25942 21-277))
Assay: cell-based or functional assay

human CD40 on cells (HEK293 stable transfectants, HEK-Blue CD40 cells, human B cells, monocytic cells, …, sequence (P25942 21-277 limits assumed): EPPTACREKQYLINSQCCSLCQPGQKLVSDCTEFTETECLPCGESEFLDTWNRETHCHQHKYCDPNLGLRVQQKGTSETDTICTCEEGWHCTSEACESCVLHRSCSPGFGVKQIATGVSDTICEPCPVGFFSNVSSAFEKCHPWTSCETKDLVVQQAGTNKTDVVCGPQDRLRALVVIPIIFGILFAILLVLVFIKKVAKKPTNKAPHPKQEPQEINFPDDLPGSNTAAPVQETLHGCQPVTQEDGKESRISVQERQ

Binder	Monocyte activation (THP1-Xblue, OD655) [OD655]	moDC activation (IL-12p70) [pg/mL]
B1	0.16	770
B2	0.14	720
B3	0.15	878
B4	0.2	0
B5	0.16	1320
B6	0.11	2160
B7	0.12	1510
B8	0.13	905
B9	0.24	0
B10	0.19	2220

Molecular target: T1, cynomolgus mesothelin (cynomolgus)
T1 construct: also called cynoMSLN; Cyno MSLN
Assay: SPR

Binder	Kd [nM]	koff [s⁻¹]	kon [M⁻¹ s⁻¹]
B11	8.1	0.00013	15000
B12	3.4	9.1e-05	27000
B13	4.9	0.00011	22000
B14	11	0.0002	18000
B15	9.3	0.00013	14000
B16	3.9	8.5e-05	22000

Molecular target: T2, human mesothelin (human, UniProt Q13421 296-580, limits assumed)
T2 construct: also called Human MSLN
Assay: SPR

T2 sequence (Q13421 other isoform, or with tags, fused parts or gaps limits assumed): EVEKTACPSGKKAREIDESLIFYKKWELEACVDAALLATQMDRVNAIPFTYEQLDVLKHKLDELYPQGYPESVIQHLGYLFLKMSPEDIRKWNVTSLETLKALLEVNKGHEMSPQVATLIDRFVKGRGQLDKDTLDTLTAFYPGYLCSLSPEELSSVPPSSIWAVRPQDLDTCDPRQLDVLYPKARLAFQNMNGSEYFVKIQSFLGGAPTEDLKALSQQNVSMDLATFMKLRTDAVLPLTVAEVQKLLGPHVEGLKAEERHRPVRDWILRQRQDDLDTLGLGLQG

Binder	Kd [nM]	koff [s⁻¹]	kon [M⁻¹ s⁻¹]
B11	2.6	3.2e-05	12000
B12	0.53	1.5e-05	29000
B13	≤ 0.39	≤ 1e-05	26000
B14	2.7	5.1e-05	19000
B15	≤ 0.66	≤ 1e-05	16000
B16	1	2.4e-05	24000

Molecular target: T3, mesothelin on cells (endogenous on SN12C, OVCAR3, SW1990); HEK293 cells expressing cell-surface human … (human, UniProt Q13421 296-598)
T3 construct: whole, on cells; also called cell-surface MSLN
Assay: FACS, OVCAR3 (CA125+)
Procedure: (§1) The binding of anti-mesothelin affinity matured variants was measured by FACS on the ovarian cancer cell line OVCAR3, the pancreatic cancer cell line SW1990, and the renal cancer cell line SN12C. Both OVCAR3 and SW1990 express CA125, but CA125 expression on SN12C cells was not detected.

T3 sequence (Q13421 other isoform, or with tags, fused parts or gaps limits assumed): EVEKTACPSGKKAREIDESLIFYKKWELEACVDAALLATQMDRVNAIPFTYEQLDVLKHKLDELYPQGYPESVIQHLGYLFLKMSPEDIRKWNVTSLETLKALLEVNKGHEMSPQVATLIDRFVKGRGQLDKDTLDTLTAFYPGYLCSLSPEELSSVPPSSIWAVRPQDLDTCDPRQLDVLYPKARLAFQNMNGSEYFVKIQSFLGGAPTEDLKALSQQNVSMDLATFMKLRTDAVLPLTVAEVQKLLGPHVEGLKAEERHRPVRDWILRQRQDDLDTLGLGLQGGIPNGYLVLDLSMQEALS

Binder	EC50 [µg/mL]	Maximum binding (MFI)
B11	2.9	1640
B17	0.7	3430
B18	0.7	3670
B19	0.8	3270
B20	0.7	3370

Molecular target: T3, mesothelin on cells (endogenous on …)
Assay: FACS, SN12C (CA125-)
Procedure: as §1

Binder	EC50 [µg/mL]	Maximum binding (MFI)
B11	2.74	11000
B17	0.04	7530
B18	0.09	9870
B19	0.09	9630
B20	0.09	9800

Molecular target: T4, soluble form of the extracellular domain of human CD40 (Creative BioMart) (human, UniProt P25942 21-193)
T4 construct: Bought
Assay: SPR, Ab captured
Procedure: CD40 binding kinetics was analyzed by surface plasmon resonance assay with a Biacore T200 instrument (Table 1-5). Briefly, a goat anti-mouse Fc antibody (Pierce) or goat anti-human Fc (Pierce) was immobilized on a CM5 sensor chip, followed by capture of the anti-CD40 antibodies on the test surface. Subsequently, the soluble form of the extracellular domain of human CD40 (Creative BioMart) or cynomolgus (cyno) CD40 (Creative BioMart) was injected, and the binding and dissociation were measured.

T4 sequence (P25942 21-193 limits assumed): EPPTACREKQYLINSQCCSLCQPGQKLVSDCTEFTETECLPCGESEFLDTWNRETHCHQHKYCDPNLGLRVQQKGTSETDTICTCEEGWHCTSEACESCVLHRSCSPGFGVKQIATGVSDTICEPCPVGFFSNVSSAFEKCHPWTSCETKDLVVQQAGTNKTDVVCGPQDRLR

Binder	Kd [nM]	koff [s⁻¹]	kon [M⁻¹ s⁻¹]
B1	13	0.034	2.6e+06
B2	0.88	0.002	2.3e+06
B3	19	0.052	2.8e+06
B4	170	0.012	69000
B5	76	0.17	2.3e+06
B6	63	0.0048	76000
B7	64	0.0048	75000
B8	4.1	0.0042	1e+06
B9	3.5	0.0096	2.8e+06
B10	35	0.016	470000
